Tests used:
SCC152 cells [1] = system: SCC152 cells
Procedure: Peripheral blood was collected by venipuncture from a human donor, and human peripheral blood mononuclear cells (PBMCs) were isolated by density gradient centrifugation using lymphocyte separation media. CD8+ T cells were enriched from PBMCs using a commercially available isolation kit and activated with anti-CD3 and anti-CD28 in Complete Cell Growth Media. 50 μl of viral vector expressing the CER-HPV16 E7 TCR combination were diluted in 0.5 ml Complete Cell Growth Media and added to the CD8+ T cells. The transduced T cells were then centrifuged at 270×g rpm for 1 hour in a 32° C. pre-warmed centrifuge. The T cells were incubated for 24 hours at 37° C. T cells were expanded for another 72 hours in Complete Cell Growth Media, de-beaded, and allowed to expand x 5 days prior to being utilized for functional assays.
Cytotoxic activity of tandem expression cassette transduced CD8+ T cells was detected using a caspase 3/7 apoptosis reagent (IncuCyte®) that couples the activated caspase 3/7 recognition motif with a red reagent that fluoresces upon cleavage. The fluorescent signal was measured using fluorescent microscopy. […] The caspase 3/7 apoptosis reagent was added to the co-culture, and cytotoxic activity was measured over time by measuring fluorescence (see, FIG. 40). […]

[2] = Engulfment of phosphatidylserine coated latex beads; type: cell-based
SCC152 cells [3] = assay: Cytokine response of tandem cassette transduced CD8+ T cells; type: cell-based, human; settings: CD8+ T cells co-cultured with SCC152 cells
SCC152 cells [4] = assay: Phagocytic activity of tandem expression cassette transduced CD8+ T cells; type: cell-based, human
Procedure: Phagocytic activity of tandem expression cassette transduced CD8+ T cells was detected by co-culturing tandem expression cassette transduced CD8+ T cells with SCC152 cells for 6 hours at a 1:1 ratio. Phagocytic events were visualized and quantified using KEYENCE BZ-X710 fluorescence microscope, 20X objective and hybrid capture software.

B1: CER21−HPV16 E7 TCR: tandem expression cassette: CER21, T2A peptide, HPV16 E7 specific TCR; SEQ ID NO:166 (protein)
chain: MSKGLLLLWLVTELWWLYLTPAASEDTIIGFLGQPVTLPCHYLSWSQSRNSMCWGKGSCPNSKCNAELLRTDGTRIISRKSTKYTLLGKVQFGEVSLTISNTNRGDSGVYCCRIEVPGWFNDVKKNVRLELRRATTTKKPTTTTRPTTTPYVTTTTPELLPTTVMTTSVLPTTTPPQTLATTAFSTAVTTCPSTTPGSFSQETTKGSAFTTESETLPASNHSQRSMMTISTDIAVLRPTGSNPGILPSTSQLTTQKTTLTTSESLQKTTKSHQINSRQTILIIACCVGFVLMVLLFLAFLHHLFYWDVWFIYNVCLAKVKGYRSLSTSQTFYDAYISYDTKDASVTDWVINELRYHLEESRDKNVLLCLEERDWDPGLAIIDNLMQSINQSKKTVFVLTKKYAKSWNFKTAFYLALQRLMDENMDVIIFILLEPVLQHSQYLRLRQRICKSSILQWPDNPKAEGLFWQTLRNVVLTENDSRYNNMYVDSIKQYLEGGGEGRGSLLTCGDVEENPGPMAPGLLCWALLCLLGAGLVDAGVTQSPTHLIKTRGQQVTLRCSPKSGHDTVSWYQQALGQGPQFIFQYYEEEERQRGNFPDRFSGHQFPNYSSELNVNALLLGDSALYLCASSLGWRGGRYNEQFFGPGTRLTVLEDLRNVTPPKVSLFEPSKAEIANKQKATLVCLARGFFPDHVELSWWVNGKEVHSGVCTDPQAYKESNYSYCLSSRLRVSATFWHNPRNHFRCQVQFHGLSEEDKWPEGSPKPVTQNISAEAWGRADCGITSASYQQGVLSATILYEILLGKATLYAVLVSTLVVMAMVKRKNSRAKRSGSGATNFSLLKQAGDVEENPGPMWGVFLLYVSMKMGGTTGQNIDQPTEMTATEGAIVQINCTYQTSGFNGLFWYQQHAGEAPTFLSYNVLDGLEEKGRFSSFLSRSKGYSYLLLKELQMKDSASYLCASVDGNNRLAFGKGNQVVVIPNIQNPEPAVYQLKDPRSQDSTLCLFTDFDSQINVPKTMESGTFITDKCVLDMKAMDSKSNGAIAWSNQTSFTCQDIFKETNATYPSSDVPCDATLTEKSFETDMNLNFQNLLVIVLRILLLKVAGFNLLMTLRLWSS
modifications: CER21_T2A_HPV16_E7_TCR tandem cassette
cytotoxic activity toward SCC152 cells (caspase 3/7) (SCC152 cells [1]; CD8+ T cells, 1:1 ratio): exhibit cytotoxic activity toward SCC152 cells | cytotoxic response relative to CD8+ T cells comprising HPV16 E7 TCR alone (SCC152 cells [1]; by 6 hours): exponentially higher | incubation time after which phosphatidylserine coated beads could be visualized inside the T cells [2]: about 30 minutes | engulfment of phosphatidylserine coated beads ([2]; CD8+ T cells, data not shown): engulfed streptavidin coated latex beads | antigen specific effector function (IFNγ response) (SCC152 cells [3]): exhibit antigen specific effector function as measured by IFNγ response | phagocytosis of SCC152 cells (SCC152 cells [4]; CD8+ T cells, 6 hours, 1:1 ratio): capable of phagocytosing SCC152 cells | dependence of engulfment of SCC152 cells on Racl (SCC152 cells [4]; Racl inhibitor NSC23766 (50 μM), data not shown): Racl-dependent manner

Source: patent US11708423B2, “Chimeric engulfment receptor molecules and methods of use” (CERO THERAPEUTICS, INC., priority 2017, dated 2023)
